According to the supplement of paper PMC9112550, “Optimization of the antimicrobial peptide Bac7 by deep mutational scanning” (BMC Biology, 2022):

System: Escherichia coli TOP10
Experiment: shrunken log2 fold change of peptide-encoding DNA abundance (4.5 h post-induction vs induction); higher = less antimicrobial activity (less host growth inhibition)
Details: time post-induction: 4.5 h; library: site-saturation at positions 5, 18, 19, 20
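Further: peptides expressed intracellularly from a pBAD plasmid library in pooled LB shake-flask culture, induced with 0.3% L-arabinose, DNA abundance read by NGS, three biological replicates, DESeq2 with apeglm shrinkage.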

Sequence	shrunken log2 fold change
RRIRFRPPRLPRPRPRPNTIPRP	-0.409
RRIRKRPPRLPRPRPRPAVPPRP	0.275
RRIRNRPPRLPRPRPRPVYHPRP	-0.0311
RRIRYRPPRLPRPRPRPWRAPRP	-0.142
RRIRQRPPRLPRPRPRPMHQPRP	-0.195
RRIRSRPPRLPRPRPRPFPVPRP	-0.516
RRIRKRPPRLPRPRPRPVLAPRP	0.605
RRIRDRPPRLPRPRPRPGTWPRP	0.475
RRIRYRPPRLPRPRPRPQRMPRP	-0.74
RRIRCRPPRLPRPRPRPEKNPRP	0.165
RRIRPRPPRLPRPRPRPPFFPRP	0.415
RRIRERPPRLPRPRPRPFSTPRP	-0.0931
RRIRSRPPRLPRPRPRPPFKPRP	0.0589
RRIRCRPPRLPRPRPRPKADPRP	-0.052
RRIRIRPPRLPRPRPRPIGGPRP	-0.0686
RRIRNRPPRLPRPRPRPSEKPRP	-0.0315
RRIRYRPPRLPRPRPRPGGGPRP	0.64
RRIRHRPPRLPRPRPRPHSVPRP	-0.0237
RRIRRRPPRLPRPRPRPSDKPRP	-0.492
RRIRHRPPRLPRPRPRPTLSPRP	-0.17
RRIRKRPPRLPRPRPRPWGSPRP	-0.034
RRIRARPPRLPRPRPRPHANPRP	-0.0153
RRIRFRPPRLPRPRPRPCRPPRP	0.0632
RRIRHRPPRLPRPRPRPWISPRP	-0.0102
RRIRHRPPRLPRPRPRPIFMPRP	-0.0784

Sequence	shrunken log2 fold change
RRIRARPPRLPRPRPRPNHSPRP	-0.55
RRIRQRPPRLPRPRPRPPPMPRP	0.558
RRIRLRPPRLPRPRPRPPDAPRP	0.524
RRIRWRPPRLPRPRPRPDPPPRP	0.575
RRIRSRPPRLPRPRPRPSFRPRP	-0.357
RRIRMRPPRLPRPRPRPDVKPRP	0.343
RRIRVRPPRLPRPRPRPFILPRP	-0.384
RRIRFRPPRLPRPRPRPVKMPRP	-0.0692
RRIRKRPPRLPRPRPRPRNDPRP	0.352
RRIRPRPPRLPRPRPRPQFMPRP	-0.259
RRIRSRPPRLPRPRPRPNHYPRP	-0.789
RRIRHRPPRLPRPRPRPDPKPRP	0.0039
RRIRYRPPRLPRPRPRPTTTPRP	-0.00235
RRIRLRPPRLPRPRPRPPILPRP	-0.287
RRIRGRPPRLPRPRPRPGWWPRP	0.113
RRIRYRPPRLPRPRPRPDYNPRP	-0.475
RRIRKRPPRLPRPRPRPSYTPRP	-0.0235
RRIRSRPPRLPRPRPRPCPSPRP	0.0411
RRIRWRPPRLPRPRPRPEGFPRP	0.192
RRIRKRPPRLPRPRPRPKWSPRP	0.506
RRIRARPPRLPRPRPRPAKRPRP	0.47
RRIRSRPPRLPRPRPRPRVLPRP	-0.285
RRIRARPPRLPRPRPRPHSVPRP	0.0268
RRIRCRPPRLPRPRPRPQIAPRP	-0.0699
RRIRNRPPRLPRPRPRPWIVPRP	0.0724

Sequence	shrunken log2 fold change
RRIRGRPPRLPRPRPRPYFIPRP	-0.336
RRIRQRPPRLPRPRPRPFVVPRP	0.0366
RRIRKRPPRLPRPRPRPGYWPRP	-0.00764
RRIRKRPPRLPRPRPRPLGDPRP	0.227
RRIRCRPPRLPRPRPRPHDEPRP	-0.0201
RRIRCRPPRLPRPRPRPVDRPRP	0.0626
RRIRKRPPRLPRPRPRPVNPPRP	-0.0659
RRIRHRPPRLPRPRPRPLKFPRP	-0.298
RRIRHRPPRLPRPRPRPNHQPRP	-1.24
RRIRHRPPRLPRPRPRPDASPRP	0.221
RRIRIRPPRLPRPRPRPCPFPRP	-1.38
RRIRDRPPRLPRPRPRPEQPPRP	-0.0458
RRIRFRPPRLPRPRPRPRYPPRP	-0.38
RRIRTRPPRLPRPRPRPAEFPRP	-0.355
RRIRPRPPRLPRPRPRPHHIPRP	-0.544
RRIRLRPPRLPRPRPRPSHGPRP	-0.0685
RRIRSRPPRLPRPRPRPRPWPRP	0.324
RRIRKRPPRLPRPRPRPCPKPRP	0.29
RRIRYRPPRLPRPRPRPMPKPRP	-0.0102
RRIRCRPPRLPRPRPRPLQSPRP	0.113
RRIRARPPRLPRPRPRPIWQPRP	0.166
RRIRPRPPRLPRPRPRPCDYPRP	0.218
RRIRRRPPRLPRPRPRPCEKPRP	-0.0914
RRIRWRPPRLPRPRPRPMMIPRP	-0.0137
RRIRMRPPRLPRPRPRPNTKPRP	-0.0097

Sequence	shrunken log2 fold change
RRIRHRPPRLPRPRPRPRKKPRP	-0.0239
RRIRSRPPRLPRPRPRPHCLPRP	-0.0826
RRIRVRPPRLPRPRPRPIVIPRP	0.0265
RRIRGRPPRLPRPRPRPGPPPRP	0.97
RRIRARPPRLPRPRPRPRTIPRP	0.148
RRIRRRPPRLPRPRPRPDAVPRP	0.462
RRIRYRPPRLPRPRPRPIICPRP	-0.185
RRIRWRPPRLPRPRPRPRVKPRP	0.13
RRIRPRPPRLPRPRPRPRIIPRP	-0.18
RRIRLRPPRLPRPRPRPNAKPRP	-0.0021
RRIRQRPPRLPRPRPRPSARPRP	-0.00609
RRIRGRPPRLPRPRPRPSNDPRP	0.702
RRIRLRPPRLPRPRPRPHSHPRP	1.65
RRIRSRPPRLPRPRPRPNAVPRP	-0.205
RRIRHRPPRLPRPRPRPHNWPRP	-0.214
RRIRCRPPRLPRPRPRPRMTPRP	0.296
RRIRRRPPRLPRPRPRPIISPRP	-0.155
RRIRKRPPRLPRPRPRPQLQPRP	0.199
RRIRIRPPRLPRPRPRPRRHPRP	-0.147
RRIRPRPPRLPRPRPRPWCSPRP	-0.201
RRIRARPPRLPRPRPRPMDQPRP	-0.194
RRIRLRPPRLPRPRPRPRECPRP	-0.104
RRIRERPPRLPRPRPRPWSPPRP	-0.0132
RRIRHRPPRLPRPRPRPHNKPRP	-0.866
RRIRNRPPRLPRPRPRPMKAPRP	-0.158

Sequence	shrunken log2 fold change
RRIRCRPPRLPRPRPRPNEYPRP	-0.587
RRIRIRPPRLPRPRPRPEVPPRP	-0.0152
RRIRWRPPRLPRPRPRPERIPRP	0.0766
RRIRYRPPRLPRPRPRPVKKPRP	-0.0286
RRIRHRPPRLPRPRPRPAAYPRP	-0.206
RRIRVRPPRLPRPRPRPNIEPRP	-0.616
RRIRWRPPRLPRPRPRPCPIPRP	-0.204
RRIRVRPPRLPRPRPRPCGEPRP	-0.256
RRIRGRPPRLPRPRPRPTTTPRP	1.07
RRIRFRPPRLPRPRPRPSAAPRP	0.346
RRIRIRPPRLPRPRPRPEMEPRP	-0.0895
RRIRNRPPRLPRPRPRPAKEPRP	0.0446
RRIRWRPPRLPRPRPRPDSAPRP	0.139
RRIRCRPPRLPRPRPRPHDGPRP	0.0999
RRIRCRPPRLPRPRPRPTILPRP	-0.646
RRIRDRPPRLPRPRPRPSIMPRP	-0.0808
RRIRPRPPRLPRPRPRPVMHPRP	0.15
RRIRSRPPRLPRPRPRPNCPPRP	-0.374
RRIRIRPPRLPRPRPRPGCMPRP	-0.134
RRIRGRPPRLPRPRPRPWGPPRP	0.427
RRIRVRPPRLPRPRPRPEDKPRP	-0.00975
RRIRGRPPRLPRPRPRPLINPRP	0.116
RRIRRRPPRLPRPRPRPTKQPRP	-0.0752
RRIRVRPPRLPRPRPRPPPNPRP	0.73
RRIRRRPPRLPRPRPRPIKRPRP	0.156

Sequence	shrunken log2 fold change
RRIRSRPPRLPRPRPRPCEIPRP	-0.0377
RRIRPRPPRLPRPRPRPVANPRP	0.495
RRIRTRPPRLPRPRPRPSKNPRP	-0.325
RRIRYRPPRLPRPRPRPYWSPRP	-0.0274
RRIRARPPRLPRPRPRPWWYPRP	-0.172
RRIRVRPPRLPRPRPRPLLSPRP	-0.08
RRIRLRPPRLPRPRPRPVWQPRP	-0.096
RRIRMRPPRLPRPRPRPPSQPRP	1.18
RRIRTRPPRLPRPRPRPAYMPRP	-0.384
RRIRPRPPRLPRPRPRPFDRPRP	0.0133
RRIRSRPPRLPRPRPRPAHVPRP	-0.0302
RRIRERPPRLPRPRPRPSIPPRP	-0.758
RRIRVRPPRLPRPRPRPYNHPRP	-0.343
RRIRHRPPRLPRPRPRPDDHPRP	0.0155
RRIRARPPRLPRPRPRPLFSPRP	-0.124
RRIRKRPPRLPRPRPRPCCKPRP	0.099
RRIRDRPPRLPRPRPRPFYLPRP	-0.085
RRIRTRPPRLPRPRPRPWDRPRP	-0.105
RRIRMRPPRLPRPRPRPRFLPRP	-0.00457
RRIRQRPPRLPRPRPRPDGRPRP	0.0192
RRIRSRPPRLPRPRPRPMSMPRP	-0.293
RRIRRRPPRLPRPRPRPDYCPRP	-0.214
RRIRCRPPRLPRPRPRPFMKPRP	-0.696
RRIRARPPRLPRPRPRPVHHPRP	-0.0524
RRIRMRPPRLPRPRPRPNWQPRP	0.00599
